The record followed here is patent US20250250357A1 (NANJING ZAIMING PHARMACEUTICAL, published 2025).

Test [1] has as its target T1, human MSLN-FL-his protein (human, UniProt Q13421 296-580).
T1 construct: also called hMSLN-FL-his; human MSLN full-length protein
The experiment in a line: ELISA. (An ELISA detects its analyte on a solid surface through an enzyme-linked reagent.)

The target of test [2] is T2, human MSLN-R1-his protein (human, UniProt Q13421 296-390).
T2 construct: also called hMSLN-R1-his; human MSLN-R1 protein
T2 chain: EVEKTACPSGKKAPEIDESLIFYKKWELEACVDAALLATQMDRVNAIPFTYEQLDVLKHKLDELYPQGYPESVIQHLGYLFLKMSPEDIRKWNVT
Nature of the test: ELISA, antibody 0.01 nM.

The target in test [3] is T2, human MSLN-R1-his protein. Nature of the test: ELISA, antibody 0.1 nM.
For test [4], the target named is T2, human MSLN-R1-his protein. The experiment in a line: ELISA, antibody 0 nM (blank).
In test [5] the target is T2, human MSLN-R1-his protein. The experiment in a line: ELISA, antibody 0.001 nM.
Test [6] concerns the target T2, human MSLN-R1-his protein. The experiment in a line: ELISA, antibody 0.0001 nM.
The target in test [7] is T2, human MSLN-R1-his protein. The experiment in a line: ELISA, antibody 10 nM.
The target of test [8] is T2, human MSLN-R1-his protein. The experiment in a line: ELISA, antibody 1 nM.
Test [9] concerns the target T2, human MSLN-R1-his protein. The experiment in a line: ELISA, antibody 100 nM.
Test [10] has as its target T3, human MSLN-hFc recombinant protein (human, UniProt Q13421 296-580).
T3 construct: Captured by an anti-human IgG antibody on the chip; also called human MSLN protein; Acro MSN-H5253
Nature of the test: SPR (Biacore 8K), MSLN-hFc captured, antibody injected. Background: Surface plasmon resonance follows binding to a sensor surface in real time, without labels.

The target in test [11] is T4, human MSLN-R3 protein (human, UniProt Q13421 487-598).
T4 construct: also called hMSLN-R3
Nature of the test: ELISA, MSLN-R3 coated, antibody 0.01 nM.

For test [12], the target named is T5, human MSLN on OVCAR3 tumor cells (human, UniProt Q13421 296-598).
T5 construct: whole, on cells; also called human MSLN protein
Nature of the test: FACS, OVCAR3 cells. (In flow cytometry, cells or beads pass a laser one at a time.)

Test [13] concerns the target T4, human MSLN-R3 protein. Nature of the test: ELISA, MSLN-R3 coated, antibody 100 nM.
In test [14] the target is T4, human MSLN-R3 protein. Nature of the test: ELISA, MSLN-R3 coated, antibody 10 nM.
Test [15] addresses T4, human MSLN-R3 protein. The experiment in a line: ELISA, MSLN-R3 coated, antibody 0.0001 nM.
Test [16] addresses T4, human MSLN-R3 protein. Nature of the test: ELISA, MSLN-R3 coated, antibody 0.1 nM.
Test [17] has as its target T4, human MSLN-R3 protein. The experiment in a line: ELISA, MSLN-R3 coated, antibody 1 nM.
The target in test [18] is T6, human MSLN-R3 on HEK293T-hMSLN-R3 recombinant cells (human, UniProt Q13421 487-606).
T6 construct: the C-terminal limit is uncertain; also called human MSLN-R3 membrane protein
Nature of the test: FACS, HEK293T-hMSLN-R3 cells.

Test [19] addresses T4, human MSLN-R3 protein. Nature of the test: ELISA, MSLN-R3 coated, antibody 0.001 nM.
Test [20] addresses T7, monkey MSLN on HEK293T-monkey MSLN recombinant cells (monkey).
T7 construct: Full-length precursor as transfected; processing on the cell is not described; also called HEK293-monkey MSLN
T7 chain: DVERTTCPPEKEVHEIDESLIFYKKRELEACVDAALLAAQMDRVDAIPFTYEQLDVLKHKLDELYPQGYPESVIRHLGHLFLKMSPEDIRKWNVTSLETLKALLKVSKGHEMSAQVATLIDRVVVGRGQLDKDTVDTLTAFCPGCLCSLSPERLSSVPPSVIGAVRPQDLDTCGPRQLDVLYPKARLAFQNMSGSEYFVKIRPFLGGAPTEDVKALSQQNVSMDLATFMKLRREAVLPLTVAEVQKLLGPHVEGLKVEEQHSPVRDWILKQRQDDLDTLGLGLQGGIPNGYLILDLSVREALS
The experiment in a line: FACS, HEK293T-monkey MSLN cells.

T4 sequence (Q13421 495-606): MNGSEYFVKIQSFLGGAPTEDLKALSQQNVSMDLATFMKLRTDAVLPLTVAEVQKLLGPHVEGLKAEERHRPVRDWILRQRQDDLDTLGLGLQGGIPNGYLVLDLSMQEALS
T6 sequence (Q13421 495-614): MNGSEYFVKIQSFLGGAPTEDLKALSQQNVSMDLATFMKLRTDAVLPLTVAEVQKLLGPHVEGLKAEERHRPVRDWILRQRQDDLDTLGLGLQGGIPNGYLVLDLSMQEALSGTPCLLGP
T5 sequence (Q13421 other isoform, or with tags, fused parts or gaps): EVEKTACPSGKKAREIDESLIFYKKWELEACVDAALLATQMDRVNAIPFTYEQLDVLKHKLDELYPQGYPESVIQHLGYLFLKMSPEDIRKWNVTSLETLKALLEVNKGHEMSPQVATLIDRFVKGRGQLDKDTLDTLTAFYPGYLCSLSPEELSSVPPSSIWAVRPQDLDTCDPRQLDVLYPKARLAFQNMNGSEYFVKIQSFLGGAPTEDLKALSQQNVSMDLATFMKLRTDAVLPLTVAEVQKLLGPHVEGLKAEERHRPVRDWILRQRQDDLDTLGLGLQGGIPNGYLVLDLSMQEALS
T3 sequence (Q13421 other isoform, or with tags, fused parts or gaps): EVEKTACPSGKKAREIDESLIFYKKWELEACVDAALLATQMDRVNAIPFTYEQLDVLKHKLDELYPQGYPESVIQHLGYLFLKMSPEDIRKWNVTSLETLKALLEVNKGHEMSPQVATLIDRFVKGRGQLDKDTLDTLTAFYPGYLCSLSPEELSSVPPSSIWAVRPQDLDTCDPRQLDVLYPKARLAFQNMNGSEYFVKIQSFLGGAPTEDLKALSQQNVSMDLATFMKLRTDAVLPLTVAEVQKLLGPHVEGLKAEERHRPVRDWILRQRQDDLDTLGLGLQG

B1: S009-F3.38.10 (antibody, human IgG1, kappa, V domains shown)
VH: EVQLQQSGPVLVKPGASVKMSCEASGYIFTDYYMNWVKKSHGKSLEWIGVINPKNGVISHNQKFKGKATLTVDKSSNTAYMELSSLTSEDSAVYYCANYGSRFYAMDYWGQGTSVTVSS
VL: DVVMTQTPLSLPVSLGDQASISCRSSQSLIHSDGNTYLQWYLQKSGQSPKLLIYKVSNRFSGVPDRFSGSGSGTDFTLKISRVETEDLGVYFCSQTTHVPFTFGSGTKLEIKR
notes: chimeric, human IgG1/kappa
For the molecule B1, the binding result in [1] is recorded as “no binding (tested: up to 100 nM)”.

B2: Tab107 (YP3, hIgG1) (antibody, V domains shown)
VH: QEQLVESGGGLVQPGASLTLTCTASGIDFSRYYMCWVRQAPGKGLEGIACIYIGGSGSTYYASWAKGRFTISKASSTTVTLQMTSLTAADTATYFCARGTNLNYIFRLWGPGTLVTVSS
VL: DVVMTQTPSPVSAAVGGTVTIKCQASQSINNGLAWYQQKPGQPPRLLIYSASNLESGVPSRFKGSGSGTEFTLTISDLECDDAATYYCQCIWDGNSYVNAFGGGTEVVVRT
notes: also called YP3 human IgG1 antibody
Consider B2, for which the OD450 nm in test [2] stood at 0.06; in test [3] it was 0.05; in test [4], 0.05; in test [5] it was 0.05; in test [6], 0.04; in test [7], 0.06. For the same molecule, the OD450 nm in test [8] came to 0.05; in test [9], 0.08.

B3: F3.38.10-L1H5 (scFv, not shown: small tags and cut ends)
scFv: DIVMTQTPLSLPVTPGEPASISCRSSQSLIHSDGNTYLQWYLQKPGQSPQLLIYKVSNRFSGVPDRFSGSGSGTDFTLKISRVEAEDVGVYYCSQTTHVPFTFGQGTKLEIKGGGGSGGGGSGGGGSEVQLVQSGAEVKKPGASVKVSCKASGYIFTDYYMNWVRQAHGQRLEWMGVINPKNGVISHNQKFKGRVTITVDKSANTAYMELSSLRSEDTAVYYCANYGSRFYAMDYWGQGTTVTVSS
notes: also called S009-F3.38.10 humanized antibody VL1 + VH5
In general, EC50 refers to the concentration that produces a half-maximal response. B3: the binding result in [10] is listed as “no binding”. Further, the OD450 nm with human MSLN-R3 protein [11] was determined as 0.07 OD; in the test with human MSLN-R3 protein [13], 2.36 OD; in the test with human MSLN-R3 protein [14], 1.19 OD; with human MSLN-R3 protein [15] it was 0.07 OD; in the test with human MSLN-R3 protein [16] it was 0.08 OD; with human MSLN-R3 protein [17], 0.27 OD. In the test with human MSLN-R3 protein [19], the OD450 nm is 0.07 OD. Besides, the values for the EC50 in test [12], in [18] and in [20] were 99.8 nM, 12 nM and 90.1 nM, respectively. Further, the Maximum_MFI in test [18] was found to be 1280 MFI.
